# Source: the DeepSol protein solubility set
# Test: soluble on expression in E. coli; label from the status in PepcDB or PDB records
row,Sequence,soluble on expression in E. coli
1,TEKFTWNTNVSYSTNSNKVVALSSEKFSMDQDYFYTGYTGEPIQTTTHIVQVGKPIGTFYGLKSVDITDDGLWLVENKKGEHVLAEETDATDWQVLGNGIPKHYLNWNNTFNFFNFDLSINMRGAFGFQILNYQRMYYENAKPEIQYNRLNSAFDKVYGKTQLKDDQRYVSYYVEDGDYWKIDNVTLGYTFKLSKQHIIKNLRIYASVLNLATITGYKGMDPEVPLSSNTYGLLDAGTDNRDKYPTNRTYTFGVNLTF,not soluble
2,GPGSMRLVDLSLPLYDGMPVYDGDPPVHVTKVCTREKDGWEVRHLQMGSHTGTHVDAPAHMHEDGSNLDEVPLTRFCGPAVVVKVADSSFPPNKGLLFYEAVPADCVPRIVAANAPFVGGPLEEKAERLLLGCGIITYTGLVNVEQLIGESFTFYGLPLRIRGGDGSPVRAVAVMDDK,soluble
3,GPGSMGTRQSSASAAPAPQASNGALHLNKLNVPTPPRIAATESPFGSNTPLAKTPTPTAATATATAAVSGEHAKRFQEALRVDSVDMALLRELSWQGCPVALRYEAWMFLTGCWTAQAATRQATVLRRRVEYAAYIHSSYGIVDWDAVCAMVDSGVDTAVHRSTLKLLEHTADAPQVAPPSGTSHSLLRVAPLTTGDSTAMAAKEAAAALPPSLSQRPDGRQSASLPLEDVRSRLPQNTSGSDAPQPSQLSPPQSADIRSASPSLGIVPAPSDSSFRASASAGFTDTAGTGPASHPSIFAPPLPGFATLGLSNVVAATAAPPAASGGAGGATGHQLSASTMLGSKELQTLKQIRKDIPRMSGGHCYLRHPRVQGSIERILFIWSLRHPACGYVQGMNDLVVPFMGVVLGYRFCPTHSVTELHAYTEDIFDDLWSVSAVSVTQWINEVEADVYWMTSYLLNTMQDNYTSSHAGITSMMRHLAAVVQVADPPLYHRLVNVLQLHFEQFSFRWMNCLLIRELTETQSLRLLDAYLSDEERRWSVTHVYVCAALLLRWGSQLMAFCEDYISVMKLLQEPPTEQLSLRDMQDVLSEGFVLQNLYEASLKRLSTTAE,not soluble
4,MGSDKIHHHHHHMPKLGFVQVEVSTRCQLSCLMCPKSCFSDEWIAKDMNMETFRLIPFKKFHYAHLQGWGEPLLNPNIGEMVDIAAKSCKVGLTTNGLLIDHHIDSILKLDLLAVSVASGDARQHERVRGCSLEKLAGNIKLVSESRGKRPKIVIATMMLKSTIESLPKLIDFAAECGADEVIANNLDYIPSKELVGEEVFGLTADKDVEKAVEQAGKRAEELGIGFIAKPRLMEEALVCAENPVENCVVAVDGRIAPCAYLNLPTASETIPRWFRGRTVEVPKVYFSSFKEWLKSDFRDTFKRRLQVLHQSLPTELPPLPQPCRTCYKAYSV,not soluble
5,MSLVTLRSLAQQLKVHVSTVSRVLNGTDDDARNAAAPETVERIRELAQQLNYRPNPHAIGLRTQKTRTVSVLVPQLSDLVVATIYEGIDAAAADSRYLTFVANTGDAPPRQRQLGEMALDRRVEGLIFADARRDDTRFLDEIARRGVPMVLVSRHLGTHCAVTCDDVAGGRMAAEHLLALGHRDIAVLAGEQYASTGCDRSAGFIAYCREQGVDIPAKWILHGPFDTRAGRLAGEKLFRSARKPSAVFAVNDFLAIGLMGAVRDRGLRAGHDVAIVGFNDTPLAAELPISLTTIRSPMHAMGYRSMELLLERIKGGRPASERLAPQLMVRASTCPREGIITITTDPNSSSVDKLAAALEHHHHHH,soluble
6,MTTQSTLQSVPALGTHPASGSNPSRAETREQLSKASYDLLVIGGGILGISTAWHAAQSGLRVAVVDAGDFAGATSSASSKLLHGGLRYLQTGAVKLVAENHFERRAVSRQVAPHLANPLTFYLPVYKGGPHGAAKLGAGVFAYSALSAFGDGVGHLLSPAKAAQDVPELRTDNLKAVAVYGDDQMNDARMALMTVRAAVESGAVVLNHAEVTGLRFTGGRVTGAELKDRLSGDEFGVNARLVLNATGPWVDHLRRMEDPAAAPSIRLSKGAHLVLKRTAPWKAALATPIDKYRITFALPWEDMLLLGTTDEEFEGDPADVAVNDKDITQILDEAAFSIRDQQLDRDLITYSFAGLRVLPGGPGDTAKAKRETVVTEGRGGMLSVAGGKWTTFRHIGRTVMKKLEALPGHPLGDDFEPIASLPKKLPLPGVANPRAVAHRLLVDGSAPGPRMAADTARHLATHYGSLAFDIARLANESPELARRVHPDAPEIWAQVVWARDNEWAETADDVLRRRTTLTIRGLATDDVRAQVQDVLDKKLEHHHHHH,not soluble
7,MAHHHHHHMTLIENLNSDKTFLENNQYTDEGVKVYEFIFGENYISSGGLEATKKILSDIELNENSKVLDIGSGLGGGCMYINEKYGAHTHGIDICSNIVNMANERVSGNNKIIFEANDILTKEFPENNFDLIYSRDAILHLSLENKNKLFQKCYKWLKPTGTLLITDYCATEKENWDDEFKEYVKQRKYTLITVEEYADILTACNFKNVVSKDLSDYWNQLLEVEHKYLHENKEEFLKLFSEKKFISLDDGWSRKIKDSKRKMQRWGYFKATKN,soluble
8,MTPFSDAAKNNTVKTDGDSVSGRDLPITKISEDRFERSAYSAQLANIICDVAPWGASTVFSLTGQWGSGKTSLVNLIRSEESLSNEKWTIVDFNPWVASDPQSLIEEFYRVIVGTVPDDKTGQKIKTVLQKTFSTIGSIAGGVGGFGVLEALALSKGVDAANAVYKTWKQEQDSWPTLYTRAANHFKDLNKRILIVVDDIDRLHTDELALLMKVIRLLGRFPQVNYLLVYEEESLLTTLARSTAVGGSEDDALRFMEKIVQYPFDVPPLTSFQIEKELSALFDKLFQGVSLSGDPEDFALVKSRMFDVWEKTLVTPRLLHRFAALLTNWTRIYGSGEVNGVDLTILATIRIVFPSVYKRLSRAKEVLLQGLEHHHHHH,not soluble
9,GMSEALSDSGLPPVQRVVTGHDAHGRAVFKSEDVTPTRMIPSGDASFLLVWTTATVPADNNDETDGRQREAGLTLDGGSVIRVVDMLPGKESPMHRTNSIDYGIVLEGEIELELDDGAKRTVRQGGIIVQRGTNHLWRNTTDKPCRIAFILIEAPAYLHNGQPLPEDKPDHK,soluble
10,MSLAYFGIYDGHGGAEASLYAKEHLMNTIVSQKLFWSENDDDVLKSIREGYIQTHYSMWREQEKWPKTSSGLPSTAGTTASIAFIRRGKIYIGHVGDSGIVLGYQNDKESANDGRWVATPLTEDHKPESYAEKMRIMSCGGKVVTKSGVPRVVWNRPRIGHKGPVRRSTPIDEIPFLAVARSLGDLWSYNSAMDEFVVSPVPDVSVIEIDPKKYRCLIFGSDGLWNVMSPKNAVDIVRNAEMENVRIALEGGNEWKNPSKLLVNEALDRWSRSNMKADNTSVVIIMLDPEGHHHHHH,not soluble
11,MGSDKIHHHHHHMKNKIGSFVIADPNKCTGCRACEVACFTMHNQHNNVGYTVGTVDIPVIPRLYLVKGDNFCMPIQCRHCEDAPCLNSCPQKAIVKENNIMSVNEEKCIGCKTCLLACPFGAIDLLPQYEDGKEVEQVILDENKKIAYKCDLCKDNEKIACISACPQKALKLVTPIDDKKAKNRQAALSLLLTNK,not soluble
12,MSLSLEEALLFREATVTDLKSIMNVENAAFTVPWTEAAFRNEFIINQYAYYLLAIYKEQVVGYAGVWLVLDEGHITNIAIHPDYQGNHYGEALLREMIRVAKERGVVRMTLEVRVSNDVAQGLYKKLGFQDGAIRKNYYPDTKEDALVMWVDLEGHHHHHH,soluble
13,MAARHHAFILAGTGSGCGKTTVTLGLLRLLQKRALRVQPFKVGPDYLDTGWHTAICGVASRNLDSFMLPPPVLNALFCEQMRQADIAVIEGVMGLYDGYGVDPNYCSTAAMAKQLGCPVILLVDGKAVSTSLAATVMGFQHFDPTLNLAGVIVNRVTSDAHYQLLKNAIEHYCSLPVLGYVPPCDGVALPERHLGLITARESLVNQQSWHDFAATLEQTVDVDALLSLSVLSALPAGMWPERPDNTAGAGLTLALADDEAFNFYYPDNIDLLERAGVNIVRFSPLHDRALPDCQMIWLGGGYPELYAADLAANTVMLKHLRAAHQRGVAIYAECGGLMYLGSTLEDSGGEIHQMANIIPGHSKMGKRLTRFGYCEAQAMQPTLLAAPGEIVRGHEFHYSDFIPETPAVMACRKVRDGRVLQEWTGGWQTGNTFASYLHVHFAQRPEMLQHWLAAARRVL,not soluble
14,MAHHHHHHMTSLQNLFVAKLPRNLTDADLHQIFVQYNPTSAKVMLDATTGKSKGFGFVLFASEDAGRTAYEKLNKTHVTLHGHNFNLCIFPSKHDGKVAMEESNALYVRNIPLKLSQAEVEQFLRGFGPLTYCAMREDNFGGSVWVVYAEFDSVESAKRALMSLHGNRTYFNTSVAILAKYADSEETKRERRRRREQQQAEQQHLDTVHNFGSPTTGLDSNKGFAVQSQNTPLPPPPPPPMRTSPGHSSTGSTLASSYSTSDMHKEGTGASLHPPTFASISHHFAPGRHGGGGPPPAMGQPAAPPASSMLASSTLQPTQPVSGQPQQSPTPNSGSFLNVIFNPTSANNFGNSFTHYSVLDQTPSRSSPGTPLNFSFGPEMENSGALANGLGTGSHAMLSASGHAPMTPVRRSSNLSTSGSYRHNPYAPVTPVSSTHNSTGPSTPLVSSIAYPTAPLAIMHFGASHHLQGSPVALHPLGPGIGVANNHFASRGNNAYLAAPASFNDLSH,not soluble
15,MGSDKIHHHHHHMAFAMKVISQVEAQRKILEEAVSTALELASGKSDGAEVAVSKTTGISVSTRYGEVENVEFNSDGALGITVYHQNRKGSASSTDLSPQAIARTVQAALDIARYTSPDPCAGVADKELLAFDAPDLDLFHPAEVTPDEAIELAARAEQASLKADKRITNTEGGSFNSHYGIKVFGNSHGMLQGYCSTRHSLSSCVIAEENGDMERDYAYTIGRAMADLQAPEWVGAECARRTLSRLSPRKLSTMKAPVIFANEVATGLFGHLVGAIAGGAVYRKSTFLLDSLGKQILPEWLTIEEHPHLLKGLASSPFDSEGVRTERRDIVKDGVLTQWLLTNYSARKLGLKSTGHAGGIHNWRIAGQGLNFEQLLKEMGTGLVVTELMGQGVSGITGDYSRGAAGFWVENGEIQYPVSEITIAGNLKEMWRNIVTVGDDIETRSNIQCGSVLLPEMKIAGQ,not soluble
16,MGNASMTKTDIATRVHNHTWKLDPIVRSLIDTDFYKLLMLQMIWKLYPEVDATFSLINRTKTVRLAEEIDEMELREQLDHARTLRLSKKENIWLAGNTFYGRSQIFEPEFLSWLSSYQLPEYELFKRDGQYELNFHGRWMDTTLWEIPALSIINELRSRSAMRSLGYFTLDVLYARAKAKMWEKVERLRELPGLRISDFGTRRRHSFLWQRWCVEALKEGIGPAFTGTSNVLLAMDSDLEAVGTNAHELPMVVAALAQTNEELAAAPYQVLKDWNRLYGGNLLIVLPDAFGTAAFLRNAPEWVADWTGFRPDSAPPIEGGEKIIEWWRKMGRDPRTKMLIFSDGLDVDAIVDTYRHFEGRVRMSFGWGTNLTNDFAGCAPKTIASLKPISIVCKVSDANGRPAVKLSDNPQKATGDPAEVERYLKFFGEEDHKEQKVLVLEHHHHHH,not soluble
17,MSLKNPCNAEFQNFCIHGECKYIEHLEAVTCKCQQEYFGERCGEKSMKTHSMIDSSEGHHHHHH,not soluble
18,MRGSVPSVREIETLLSQLPWRQFQSPRVHLEQYTTPVHLAARIAHHVALCIDEDERRSVQAVDLGTGTGILALALCLAGLNHVLGVDVDSEALELARANAAALWELCPQSVGAVLEFAAVDVQPNSLALAPKSFDVAVLNPPFGTRQRSADIAFLDVACHLSRRFVYSLHKSSTRSYLSRRLERFGCTAQVYARLRFDLPATYVFHRERAVDIDVDLWQIEVKR,not soluble
19,MTTFILSHNLQVQSKDVPPFETQVLADGIVSNSSAIISATVIQHPHWIIELTSNLPPNDMAVELVKSWKQLRSKLGQSADHVILALGGRKDSLAAPGAPLQEGFWGVDVVETHDEEAFLQAINWDALKSNRPEDGVFEISSNN,not soluble
20,MSRLGYVMTKASAKNFKVYINGSARGYRNIIINGAKSWNPSPYLNTVTMGNDVKPNFTVSSSNTNKGSVLAVCNTTYYKSNKLIVKNEITLYKGFRSLSNNHKIETVAHEFGHGFGLGHVKTRNAIMLDKGFINKTKPQKLEHHHHHH,not soluble
